This is an account of results in patent publication US20250163127A1.

Several values for one entry are separate records, joined by “and”; a condition that tells them apart may be missing. Equal entries are not always repeated. Where two headings read alike, the source gives them in different places.

Experiment [1] deals with CD112R (human) (UniProt Q6DKI7). As to the kind of experiment: flow cytometry, transfected HEK293; secondary reagent alone. On the technique in general: Flow cytometry measures light scatter and fluorescence of single cells or particles in a stream.
CD112R (human), sequence (Q6DKI7 whole entry, the tested form may be a part): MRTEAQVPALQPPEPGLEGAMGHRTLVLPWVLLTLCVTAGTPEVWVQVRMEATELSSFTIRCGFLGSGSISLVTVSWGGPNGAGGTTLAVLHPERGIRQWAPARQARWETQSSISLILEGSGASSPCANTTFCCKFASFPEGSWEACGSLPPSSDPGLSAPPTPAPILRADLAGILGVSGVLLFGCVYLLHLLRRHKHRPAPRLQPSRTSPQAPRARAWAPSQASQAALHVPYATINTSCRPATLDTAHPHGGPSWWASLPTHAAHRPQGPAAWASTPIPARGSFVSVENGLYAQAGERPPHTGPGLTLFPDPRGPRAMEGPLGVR
In experiment [2] the target is T1, CD226 (human) (UniProt Q15762).
T1 sequence: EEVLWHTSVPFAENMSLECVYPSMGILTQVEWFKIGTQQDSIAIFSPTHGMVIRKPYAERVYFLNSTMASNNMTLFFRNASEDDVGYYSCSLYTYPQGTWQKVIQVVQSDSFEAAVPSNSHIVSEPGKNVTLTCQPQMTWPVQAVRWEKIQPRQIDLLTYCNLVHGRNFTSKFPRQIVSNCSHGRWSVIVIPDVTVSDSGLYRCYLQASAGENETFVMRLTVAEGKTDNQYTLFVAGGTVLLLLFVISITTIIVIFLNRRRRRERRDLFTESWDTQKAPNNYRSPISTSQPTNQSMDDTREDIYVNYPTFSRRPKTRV
Described as above.

Experiment [3] concerns the target T2, CD96 (human) (UniProt P40200).
T2 sequence: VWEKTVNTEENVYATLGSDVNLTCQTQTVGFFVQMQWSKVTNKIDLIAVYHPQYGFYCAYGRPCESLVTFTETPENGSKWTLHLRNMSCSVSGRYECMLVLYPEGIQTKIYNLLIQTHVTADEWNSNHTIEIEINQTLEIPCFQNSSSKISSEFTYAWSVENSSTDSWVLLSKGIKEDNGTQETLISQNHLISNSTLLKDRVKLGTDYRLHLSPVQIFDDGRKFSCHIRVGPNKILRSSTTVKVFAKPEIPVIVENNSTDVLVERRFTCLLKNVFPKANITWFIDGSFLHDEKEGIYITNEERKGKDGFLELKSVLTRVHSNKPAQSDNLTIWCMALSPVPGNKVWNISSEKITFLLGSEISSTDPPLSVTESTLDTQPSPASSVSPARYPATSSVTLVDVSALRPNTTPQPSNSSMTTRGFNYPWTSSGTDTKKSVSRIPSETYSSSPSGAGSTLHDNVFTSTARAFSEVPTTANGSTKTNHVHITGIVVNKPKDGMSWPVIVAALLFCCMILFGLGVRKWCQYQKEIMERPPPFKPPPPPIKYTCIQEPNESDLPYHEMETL
The experiment is described as above.

Experiment [4] concerns the target T3, TIGIT (human) (UniProt Q495A1).
T3 sequence: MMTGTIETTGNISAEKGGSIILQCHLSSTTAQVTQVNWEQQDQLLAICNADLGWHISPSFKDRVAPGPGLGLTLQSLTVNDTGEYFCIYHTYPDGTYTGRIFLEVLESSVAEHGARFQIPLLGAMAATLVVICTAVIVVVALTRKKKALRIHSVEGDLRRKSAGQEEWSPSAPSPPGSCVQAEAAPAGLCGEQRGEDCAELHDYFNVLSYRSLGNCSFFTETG
The description is as above.

In experiment [5] the target is T2, CD96 (human). As to the kind of experiment: flow cytometry on transfected HEK293 cells, 100 nM.
Experiment [6] concerns the target T3, TIGIT (human). As to the kind of experiment: flow cytometry on transfected HEK293 cells, 100 nM.
In experiment [7] the target is CD112R (human) (UniProt Q6DKI7). As to the kind of experiment: flow cytometry, transfected HEK293.
Experiment [8] concerns the target T3, TIGIT (human). As to the kind of experiment: flow cytometry, transfected HEK293.
The target in experiment [9] is T1, CD226 (human). Briefly: flow cytometry, transfected HEK293.
For experiment [10], the target named is T2, CD96 (human). Briefly: flow cytometry, transfected HEK293.
The target in experiment [11] is T1, CD226 (human). As to the kind of experiment: flow cytometry, Fc fusion on Expi293 cells transfected with full-length human CD226.
For experiment [12], the target named is T3, TIGIT (human). As to the kind of experiment: flow cytometry, Fc fusion on Expi293 cells transfected with full-length human TIGIT.
Experiment [13] has as its target CD112R (human) (UniProt Q6DKI7). As to the kind of experiment: flow cytometry, Fc fusion on Expi293 cells transfected with full-length human CD112R.
Experiment [14] concerns the target T2, CD96 (human). As to the kind of experiment: flow cytometry, CD96-transfected Expi293 cells.
Experiment [15] has as its target T3, TIGIT (human). Briefly: flow cytometry, TIGIT-transfected Expi293 cells.
Experiment [16] has as its target T1, CD226 (human). Briefly: flow cytometry, CD226-transfected Expi293 cells.
Experiment [17] deals with T2, CD96 (human). Briefly: flow cytometry, CD96-transfected Expi293 cells; ratio to wild-type CD155.
Experiment [18] addresses CD80 (human). As to the kind of experiment: flow cytometry, cells expressing CD80, 20 nM.
The target in experiment [19] is human PD-1 (human) (UniProt Q15116). Briefly: flow cytometry, cells expressing PD-1, 20 nM.
For experiment [20], the target named is CD28 (human) (UniProt P10747). Briefly: flow cytometry on HEK293 cells transfected with CD28; Fc control.
In experiment [21] the target is CTLA-4 (human). Briefly: flow cytometry on HEK293 cells transfected with CTLA4; Fc control.
The target in experiment [22] is PD-L1 (human). Briefly: flow cytometry on HEK293 cells transfected with PD-L1; Fc control.
The target in experiment [23] is CD28, full-length, expressed on transfected cells (Homo sapiens (Human)) (UniProt P10747). Briefly: flow cytometry, cells expressing target.
For experiment [24], the target named is CTLA-4, full-length, expressed on transfected cells (Homo sapiens (Human)) (UniProt P16410). Briefly: flow cytometry, cells expressing target.
CTLA-4, full-length, expressed on transfected cells (Homo sapiens (Human)), sequence (P16410 36-223): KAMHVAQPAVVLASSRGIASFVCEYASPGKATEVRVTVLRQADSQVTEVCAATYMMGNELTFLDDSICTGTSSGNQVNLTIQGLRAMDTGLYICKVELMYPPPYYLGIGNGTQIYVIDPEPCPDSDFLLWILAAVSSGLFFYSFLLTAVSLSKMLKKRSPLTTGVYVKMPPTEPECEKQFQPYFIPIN
Experiment [25] has as its target ICOS, full-length, expressed on transfected cells (Homo sapiens (Human)) (UniProt Q9Y6W8). As to the kind of experiment: flow cytometry, cells expressing target.
In experiment [26] the target is CD28 (human) (UniProt P10747). As to the kind of experiment: flow cytometry, transfected cells.
The target of experiment [27] is ICOS as used in the OD read-out of Table E15A (Homo sapiens (Human)) (UniProt Q9Y6W8). Briefly: OD read-out, format not told.
In experiment [28] the target is CD28 (human) (UniProt P10747). As to the kind of experiment: flow cytometry, transfected cells. This is another data set of the same source.

CD112 ECD-Fc (Fc fusion), sequence (chain): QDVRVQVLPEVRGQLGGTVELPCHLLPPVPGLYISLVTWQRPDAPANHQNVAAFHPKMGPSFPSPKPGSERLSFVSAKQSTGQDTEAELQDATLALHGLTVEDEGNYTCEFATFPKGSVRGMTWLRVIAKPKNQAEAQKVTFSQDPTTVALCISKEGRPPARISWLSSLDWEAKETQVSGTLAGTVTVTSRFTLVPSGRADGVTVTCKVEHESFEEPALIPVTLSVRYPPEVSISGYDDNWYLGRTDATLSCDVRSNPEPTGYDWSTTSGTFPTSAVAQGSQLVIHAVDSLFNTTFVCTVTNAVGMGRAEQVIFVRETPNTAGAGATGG
ICOS, full-length, expressed on transfected cells (Homo sapiens (Human)), sequence (Q9Y6W8 21-199 limits assumed): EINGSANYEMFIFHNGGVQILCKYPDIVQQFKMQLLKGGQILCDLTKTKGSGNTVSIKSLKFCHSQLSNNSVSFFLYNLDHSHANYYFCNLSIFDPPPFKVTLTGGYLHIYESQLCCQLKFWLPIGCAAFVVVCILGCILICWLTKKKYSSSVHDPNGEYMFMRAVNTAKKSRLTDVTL

For Anti-huFc PE (tool reagent), the MFI at 20 nM in experiment [1] came out at 1010; in experiment [2], 1010; in experiment [3] it was 1060; in experiment [4], 1140.

For the substance CD112 ECD-Fc (Fc fusion), the MFI at 100 nM is 1100 MFI in experiment [5] and 29200 MFI in experiment [6].

For CD112 IgV-Fc A112V (Fc fusion), the MFI at 20 nM in experiment [7] was 1140 and 1110; in experiment [8], 69700.

For CD112 IgV-Fc Y33H/A112V (Fc fusion), the Fold Increase to WT IgV was 0.69 fold in experiment [7], 1.28 fold in [9], 1.25 fold in experiment [10] and 5.09 fold in experiment [8]. For the same substance, the MFI at 20 nM in [7] amounted to 1150; in experiment [9], 13800; in experiment [10], 3120; in experiment [8] it was 178000.

For CD112 N106Y, A112V (Fc fusion), the MFI in experiment [11] turned out to be 15300 MFI; in [12], 6040 MFI; in experiment [13], 1970 MFI. In addition, the MFI parental ratio (parental ratio) in experiment [11] came to 0.06; in experiment [13], 1.36.

Regarding CD112 Y33H, A112V (Fc fusion), the results for the MFI in experiment [11] and in experiment [12] were 231000 MFI and 99000 MFI, respectively.

Consider CD155 IgV-Fc A81V, L83P (Fc fusion), for which the MFI in experiment [14] came out at 2620; in experiment [15] it was 2910.

Consider “CD155 IgV-Fc P18L, L79V, F91S (Fc fusion)”, for which the MFI is 3280 in [14], 5140 in [16] and 4070 in [15]. The MFI parental ratio in [17] was found to be 1.1.

Take “CD155 IgV-Fc P18T, F91S, R94H (Fc fusion)”: the MFI in [14] worked out at 2510; in [16], 3590; in [15], 2940. Besides, the MFI parental ratio in experiment [17] amounted to 0.8.

In the case of Fc Control, the MFI at 20 nM in experiment [18] was 132 MFI; in experiment [19], 59 MFI.

Fc only: the MFI at 66.6 nM stood at 2590 MFI in experiment [20] and 5960 MFI in experiment [21]. In addition, the MFI at 22.2 nM in experiment [22] was 4740 MFI.

Regarding ICOSL ECD-Fc F138L/L203P (Fc fusion), the MFI is 1510 MFI in [23], 2150 MFI in experiment [24] and 53800 MFI in [25].

Take “ICOSL ECD-Fc N30D/K42E/N52S/H115R/F172S/N194D (Fc fusion)”: in experiment [26], the MFI was found to be 4400 MFI.

For “ICOSL ECD-Fc N52H/N57Y/Q100P (Fc fusion)”, the OD in experiment [27] came out at 1.57 OD. In addition, in experiment [23], the MFI was 447 MFI and the parental ratio was 24.8 ratio to WT.

Substance “ICOSL ECD-Fc N52Q/N84Q/N168Q (Fc fusion)” displayed an MFI in [28] of 1580 MFI.

ICOSL ECD-Fc N52S/E220G (Fc fusion) showed an MFI in experiment [24] of 1800 MFI.

On to “ICOSL ECD-Fc N52S/S130G/Y152C (Fc fusion)”, for which, in experiment [27], the OD worked out at 0.16 OD and the parental ratio is 0.19 ratio to WT. In addition, in [23], the MFI stood at 24 MFI.
